According to paper PMC6286779, “HLA-A2-Restricted Epitopes Identified from MTA1 Could Elicit Antigen-Specific Cytotoxic T Lymphocyte Response” (Journal of Immunology Research, 2018):

Key:
[1] = system: HLA-A2.1/K^b transgenic mice; assay: Serum IFN-γ ELISA after immunization; format: in vivo; conditions: mice immunized with 100 μg/ml MTA1(1–283) in IFA days 0 and 7; serum day 14; vs PBS, P < 0.001; n = 5
SW620 (HLA-A2+, MTA1+) = assay: LDH cytotoxicity assay, CTLs induced in vitro; format: cell-based, human; conditions: PBMCs induced by 50 μg/ml MTA1(1–283); E/T 50 : 1; LDH assay; n = 4
Experimental: (§1) CTL induction in vitro was conducted according to the procedures previously described. Briefly, PBMCs from eight HLA-A^∗02^+ healthy donors were isolated using Ficoll-Paque density gradient centrifugation and resuspended in RPMI 1640 medium supplemented with 10% FBS. Then, PBMCs were stimulated three times (once a week) with the indicated peptides (10 μg/ml) or protein MTA1(1–283) (at final concentrations of 0, 1, 10, 30, and 50 μg/ml) for 21 days. Human recombinant cytokine interleukin-2 (IL-2) (50 U/ml) was added on day 3 and 1 day after each stimulation. The cytotoxic assay (lactate dehydrogenase (LDH) assay) and IFN-γ secretion enzyme-linked immunospot (ELISPOT) assay were performed on day 21.
(§2) Cytotoxic activity of induced T cells was tested based on the quantitation of LDH release using the nonradioactive cytotoxicity assay kit (Promega, USA) at the gradient E/T ratio [29, 31]. Target cells which expressed different levels of MTA1 or peptide-pulsed T2 cells were used as target cells. The anti-human HLA-A2 antibody (BB7.2) was added 30 min before adding effector cells to determine the HLA restriction. Target cells (5 × 10^3/well) were cocultured with the effector cells at 37°C for 4 h. The percentage of specific lysis of the target cells was determined using the equation: percentage of specific lysis = [(experimental release − effector spontaneous release − target spontaneous release)/(target maximum release − target spontaneous release)] × 100.

[2] = system: HLA-A2.1/K^b transgenic mice; assay: IFN-γ intracellular cytokine staining, CD4+ T cells; format: in vivo; conditions: mice immunized with MTA1(1–283); CD3+CD8− subset
Experimental: (§3) To test the effects of protein, each HLA-A2.1/K^b transgenic mouse was injected subcutaneously at the base of the tail with 100 μg MTA1(1–283) or the same volume of PBS emulsified in IFA twice on days 0 and 7. On day 14, spleen lymphocytes were harvested and stimulated by peptide pool (10 μg/ml) in vitro for another 6 days. LDH, IFN-γ ELISPOT, and IFN-γ intracellular cytokine staining assays were performed on day 6 after the in vitro stimulation. E/T ratios used in the LDH assay were 12.5 : 1, 25 : 1, and 50 : 1.
(§4) To test the protein MTA1(1–283) stimulation of CTL response in vivo, IFN-γ release of induced CTLs was determined by the intracellular cytokine staining assay according to our former study. In brief, on day 14, spleen lymphocytes were harvested and stimulated by peptide pool (10 μg/ml) in vitro for another 6 days. Then, restimulated splenocytes were incubated with peptide-loaded T2 cells or T2 cells only for 3 h. Subsequently, protein transport inhibitor cocktail was added to splenocytes for another 4 h. Then, those cells were stained with Anti-mouse CD3 PerCP-eFluor® 710 (clone: 17A2, eBioscience) and Anti-mouse CD8α PE (clone: 53–6.7, eBioscience) at 4°C for 30 min. […] Those cells were washed twice by permeabilization buffer and analyzed by flow cytometry.

[3] = system: HLA-A2.1/K^b transgenic mice; assay: IFN-γ intracellular cytokine staining, CD8+ T cells; format: in vivo; conditions: mice immunized with MTA1(1–283); splenocytes restimulated with peptide pool; T2 cells pulsed with each peptide; vs PBS, P < 0.001
Experimental: as §3, §4

[4] = system: SW620 cells (HLA-A2+, MTA1+); assay: LDH cytotoxicity assay, CTLs induced in HLA-A2.1/Kb transgenic mice; format: in vivo, human; conditions: mice immunized with MTA1(1–283) days 0 and 7; E/T 50 : 1 and 25 : 1; significant vs PBS
Experimental: In vivo induction of peptide-specific CTLs was performed as previously described. Briefly, peptide (100 μg) and the IA^b-restricted HBV-core128 T helper epitope (140 μg) emulsified in incomplete Freund's adjuvant (IFA) were used to subcutaneously immunize at the base of the tail of HLA-A2.1/K^b transgenic mice three times on days 0, 5, and 10. On day 11, all mice were sacrificed through cervical dislocation. Spleen lymphocytes were isolated and restimulated once with 10 μg/ml peptide and 10 U/ml mIL-2 in vitro for an additional 6 days. LDH and IFN-γ ELISPOT assays were performed on day 6 after in vitro stimulation. […]
as §3, §2

[5] = system: PBMCs from HLA-A*02+ healthy donors; assay: IFN-γ ELISPOT of CTLs induced in vitro; format: cell-based, human; conditions: PBMCs stimulated with MTA1(1–283) once a week for 21 days; stimulators T2 cells with peptide pool 50 μg/ml; n = 4
Experimental: as §1
The ELISPOT assay was performed using a commercial kit (Dakewe, China) according to the procedures previously described. Briefly, T2 cells incubated with/without candidate peptide (50 μg/ml) were used as the stimulating cells, effector cells (1 × 10^5) and stimulator cells (peptide-pulsed T2 cells or T2 cells only, 1 × 10^5) were seeded into the 96-well plate precoated with an anti-human (or anti-mouse) IFN-γ antibody. After incubation at 37°C for 18 h, cells were removed, and plates were processed for analysis as instructed. The spot number was determined automatically using a computer-assisted spot analyzer (Dakewe, China).

B1: MTA1(1–283): recombinant fragment of MTA1, first 283 amino acids, expressed in E. coli from pET28a, containing the predominant epitopes (protein, UniProt Q13330 1-283, looked up, fragment)
chain: MAANMYRVGDYVYFENSSSNPYLIRRIEELNKTANGNVEAKVVCFYRRRDISSTLIALADKHATLSVCYKAGPGADNGEEGEIEEEMENPEMVDLPEKLKHQLRHRELFLSRQLESLPATHIRGKCSVTLLNETESLKSYLEREDFFFYSLVYDPQQKTLLADKGEIRVGNRYQADITDLLKEGEEDGRDQSRLETQVWEAHNPLTDKQIDQFLVVARSVGTFARALDCSSSVRQPSLHMSAAAASRDITLFHAMDTLHKNIYDISKAISALVPQGGPVLCRD
- IFN-γ secretion in vivo (serum IFN-γ, ELISA) [1]: secreted more IFN-γ compared with the PBS control group
- rate of lysis of SW620 cells by protein-induced CTLs (SW620 (HLA-A2+, MTA1+)): 50.01%
- percentage of IFN-γ+ CD4+ T cells [2]: a certain percentage of IFN-γ ^+ CD4^+ T cells
- percentage of IFN-γ+ CD8+ T cells [3]: a higher percentage of IFN-γ ^+ CD8^+ T cells compared with the PBS group
- lysis of SW620 tumor cells by T cells induced in vivo by protein [4]: could kill SW620 tumor cells
- IFN-γ secretion of protein-induced CTLs, ELISPOT [5]: can secrete IFN-γ
